# Laboratory results from US20110059051, “Molecular Control of Brown Fat Differentiation and Engergy Expenditure” (Dana-Farber Cancer Institute, Inc., published 2011).
# Biological target: PRDM16 R998Q (Mus musculus, UniProt A2A935 SEQ:1-1275, R998Q)
# Test: EMSA; R998Q completely loses DNA binding; same buffer as wild type
# Conditions: label: 32P end label
# Chain of PRDM16 R998Q (A2A935 other isoform, or with tags, fused parts or gaps R998Q | R998Q R998Q): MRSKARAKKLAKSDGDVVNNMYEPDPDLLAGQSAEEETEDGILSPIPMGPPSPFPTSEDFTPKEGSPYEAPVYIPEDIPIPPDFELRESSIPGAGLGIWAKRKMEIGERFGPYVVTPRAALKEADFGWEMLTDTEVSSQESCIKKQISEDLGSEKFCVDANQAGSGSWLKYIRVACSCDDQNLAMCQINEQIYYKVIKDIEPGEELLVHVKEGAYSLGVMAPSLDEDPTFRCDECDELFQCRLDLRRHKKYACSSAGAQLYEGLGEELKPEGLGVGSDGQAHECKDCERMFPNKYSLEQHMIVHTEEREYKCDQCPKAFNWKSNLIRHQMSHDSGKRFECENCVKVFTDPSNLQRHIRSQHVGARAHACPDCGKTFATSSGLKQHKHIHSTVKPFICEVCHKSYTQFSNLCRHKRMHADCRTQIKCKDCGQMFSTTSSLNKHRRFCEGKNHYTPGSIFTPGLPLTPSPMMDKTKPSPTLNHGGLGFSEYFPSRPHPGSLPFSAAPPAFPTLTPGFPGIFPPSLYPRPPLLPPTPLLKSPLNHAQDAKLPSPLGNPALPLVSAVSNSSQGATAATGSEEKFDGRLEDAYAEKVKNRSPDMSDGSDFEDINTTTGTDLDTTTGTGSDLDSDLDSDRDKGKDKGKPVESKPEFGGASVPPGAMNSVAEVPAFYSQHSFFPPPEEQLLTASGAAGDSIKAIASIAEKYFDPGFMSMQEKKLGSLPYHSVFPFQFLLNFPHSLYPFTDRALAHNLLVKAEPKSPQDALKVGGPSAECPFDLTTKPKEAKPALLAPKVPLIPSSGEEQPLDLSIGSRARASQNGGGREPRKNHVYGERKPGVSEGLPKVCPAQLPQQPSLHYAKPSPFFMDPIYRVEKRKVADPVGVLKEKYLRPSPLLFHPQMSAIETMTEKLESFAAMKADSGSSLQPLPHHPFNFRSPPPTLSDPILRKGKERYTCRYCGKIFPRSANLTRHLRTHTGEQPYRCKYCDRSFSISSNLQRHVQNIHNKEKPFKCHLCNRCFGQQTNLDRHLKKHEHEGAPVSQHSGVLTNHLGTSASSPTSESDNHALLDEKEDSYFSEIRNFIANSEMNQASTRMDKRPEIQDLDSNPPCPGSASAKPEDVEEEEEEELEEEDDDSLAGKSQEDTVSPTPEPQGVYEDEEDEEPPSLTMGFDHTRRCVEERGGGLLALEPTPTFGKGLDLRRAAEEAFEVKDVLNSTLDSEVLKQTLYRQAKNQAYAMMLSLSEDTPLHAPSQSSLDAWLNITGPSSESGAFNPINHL
binder,measurement,value
PRDM16 consensus binding site EMSA probe (dsDNA) DNA 1: GATCCGACAAGATAAGATAAGGATCTATAAGAAGATGAGGTATG DNA 2: CATACCTCATCTTCTTATAGATCCTTATCTTATCTTGTCGGATC,binding result,no binding
